Assay: yeast display, Sf9 membrane polyspecificity reagent, FACS + sequencing; frameworks hold sequencing errors
Procedure, shortened: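 Sorting gates, low and high (top ~1%), were placed on anti-HA fluorescence to track expression and on streptavidin fluorescence to track reagent binding. A clone's polyreactivity label is taken from the gate it came out of. The reagent was 10% biotinylated, detergent-solubilized Sf9 membrane, applied for 1 hour at 4 °C to galactose-induced yeast display cells.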

Sequence | polyreactivity (PSR sort gate)
QVQLVESGGGLVQAGGSLRLSCAASGRTFRYYAMGWYRQAPGKEREFVASIRRGGGSTYYADSVKGRFTISRDNAKNTVYLQMNSLKPEDTAVYYCAAQPYTLSLFRLNYDYWGQGTQVTVSS | low polyreactivity
QVQLVESGGGLVQAGGSLRLSCAASGFTFGYYAMGWYRQAPGKERELVATIDRGGGTSYADSVKGRFTISRDNAKNTVYLQMNSLKPEDTAVYYCNRAGYGAKARRYRSYWGQGTQVTVSS | high polyreactivity
QVQLVESGGGLVQAGGSLRLSCAASGSIFRWYAMGWYRQAPGKERELVASISSGTRTNYADSVKGRFTISRDNAKNTVYLQMNSLKPEDTAVYYCAAPYVKRWWGYGYWGQGTQVTVSS | high polyreactivity
QVQLVESGGGIVQAGGSLRLSCAASGSTFSKYAMGWYRQAPGNERELVAAISSRGGSTYYADSVKGRFTISRDNAKNTVYLQMNCLKPEDTAVYYCAAKFYAEYGYWGHGTQVTVSS | high polyreactivity
QVQLVESGGGLVQAGGSLRLSCAASGRTFGWYAMGWYRQAPGKERELVAAINNSGDITYYADSVKGRFTISRDNAKNTVYLQMNSLKPEDTAVYYCAKSLPHSTSRDYWGQGTQVTVSS | low polyreactivity
QVQLVESGGGLVQAGGSLRLSCAASGSISFYYGIGWYRHAPGKERELVAALNNTGSTNYADSVKGRFTISRDNAKNTVYLQMNSLKPEDTAVYYCNAEQWQSSEYGEWSKRDYWGHGTQVTVSS | low polyreactivity
QVQLVESGGGLVQAGGSLRLSCAASGRTFLINAMGWYRQAPGKERELVAGINRNGGTTYYADSVKGRFTISRDNAKNTVYLQMNSLKPEDTAVYYCAKRYPSWFNYWGQGTQVTVSS | high polyreactivity
QVQLVESGGGLVQAGGSLRLSCAASGRTFTRYAMGWYRQAPGKERELVAAITIGDTTNYADSVKGRFTISRDNAKNTVYLQMNSLKPEDTAVYYCAAYVPRWSSYRRGGYWGQGTQVTVSS | high polyreactivity
QVQLVESGGGLVQAGCSLRLICAASGLTFSRYTMGWYRQAPGKERELVAAISLSGGRTYYADSVKGRFTISRDNAKNTVYLQMNSLKPEDTAVYYCNARGTYHGQYYWGEGTQVTVSS | high polyreactivity
QVQLVESGGGLVQAGGSLRLSCAASGSIFRYNAMGWYRQAPGKERELVAAISWSGGSTYYADSVKGRFTISRDNAKNTVYLQMNSLKPEDTAVYYCATRYYVNVPGRRYGYWGQGTQVTVSS | low polyreactivity
QVQLVDSGGGLVQAGGSLRLSCAASGYTFEIYAIRWYRQAPGKERELVAAITRSGDSTYYADSVKGRFTISRDNSKNTVYLQMNSLKPEDTAVYDCNADYPGQYDSWGQGTQVTVSS | low polyreactivity
QVQLVESGGGLVQAGGSLRLSCAASGLTFVRYTMGWYRQAPGKERELVADISSVGSTYYADSVKGRFTISRDNAKNTVYLQMNSLKPQDTAVYYCNTSYIIWYDSWGQGTQVTVSS | low polyreactivity
QVQLVESGGGLVQAGGSLRLSCAASVFTFWWYDMGWYIQAPGKERELVAAISRGGSTYYADSVKGRFTISRDNAKNTVNLQMNSLKPEDTAVYYCAADTTYGINRREYWGQGTQVTVSS | low polyreactivity
QVQLVESGGGLVQAGGSLRLSCAASGFIFHDNAMGWYRQAPGKERELVAAISRSGGRTYYADSVKGRFTISRDNAKNTVYLQMNSLKPEDTAVYYCAAVPPPGGLDYWGQGTQVTVSS | high polyreactivity
QVHLVESGGGLVQAGGSLRLSCAASGSIYTRYAMGWYRQAPGKERDLVAAITVSGGSTYYADSVKGRFTISRDNAKNTVYLQMNSLKPEDTAVYYCARRAWSGPGYFKAIRRFDYWGQGTQVTVSS | low polyreactivity
QVQLVESGGGLVQAGGSLRLSCAASGSTFVYYAMGWYRQAPGKERELVAAITASGGGTYYADSVKGRFTISRDNAKNTVYLQMNSLKPEDTAVYYCNRGYDYWGQGTQVTVSS | low polyreactivity
QVQLEESGGGLVQAGGRLRLSCAASGSIFTGYTMGWYRQAPGKERELVASISRRGGRTYYADSVKGRFTISRDNAKNTVYLQMNSLKPEDTAVYYCAVDRVPWRYQDSYNYWGQGTQVTVSS | high polyreactivity
QVQLEESGGGLVQAGGSLRVSCSASGSTYLDYHMGWYRQAPGQQRELVAAITDSGGRTYYADSVKARFTISRDNAKNTVYFQMKSLKPEDTAVYYCARDRGKITPYDYWGQGTQVTVSS | low polyreactivity
QVQLVESGGGLVQAGGSLRLSCAASGSTFAYYAMGWYRQAPGKERELVAVISVRGGSTYYADSVKGRFTISRDNAKNTVYLQMNSLKPEDTAVYYCAADTFAGYYYWGQGTQVTVSS | high polyreactivity
QVQLVESGGGLVQAGGSLRLSCAASGRTFQYNAMGWYRQAPGKQWELVAAISSSGGSTYYADSVKGRFTISRDNAKITVYLKMNSLKPEDTAVYYCNAYSQSWNFYGDGDYWGQGTQVTVSS | low polyreactivity
QVQLVESGGGLVQAGGSLRLSCAASGSTFTNYAMGWYRQAPGKERELLARITYNVGRTYYADSVKGRFTISRDNAKNTVYLQMNSLKPEDTAVYYCAAGVGWRYRVRWYYSLGDYWGQGTQVTVSS | high polyreactivity
QVQLVESGGGLVQAGGSLRLSCAASGFTFRDNAMGWYRQAPGKERELVAAISKSGGTTYYADSVKGRFTISRDNAKNTVYLQMNSLKPEDTAVYYCNAVNRYSGHSYYWGQGTQVTVSS | low polyreactivity

Sequence | polyreactivity (PSR sort gate)
QVQLVESGGGLVQAGGSLRLSCAASGSIFVKYTMGWYRQAPGKERELVAAISFRGGSTYYADSVKGRFTISRDNAKNTVYLQINSLKPEDTAVYYCNADGGWWPEYYWGQGTQVTVSS | low polyreactivity
QVQLVESGGGLVQAGGILRLSCAASGSTFVTYTMGWYRQAPGKERELVATITTSGGSTYYADSVKGRFTISRDNAKNTVYLQMNSLKPEDTAVYYCAADWDPGYYVQYGYDYWGQGTQVTVSS | low polyreactivity
QVQLVESGGGLVQAGGSLRLSCAASGFIFDRYAMGWYRQAPGKERELVAAITGSGGSTYYADSVKGRFTISRDNAKNTVYLQMNSLKPEDTAVYYCAAESYVYFALFYVSIPYYYWGQGTQVTVSS | high polyreactivity
QVQLVESGGGLVQAGGSLRLSCAASGSTFYPYAMGWYRQAPGKERELVAAISSGGSTYYADSVKGRFTISRDNAKNTVYLQMNSLKPEDTAVYYCAADLYYAYYWGQGTQVTVSS | low polyreactivity
QVQLVESGGGLVQAGGSLRLICAASGSIFGSNAMGWYRQAPGKEREFVAVITWRVGDTYYADSVKGRFTISRDNAKNTVYLQMKSLKPEDTAVYYCNVDWKVYGAPDYRIAWKYDYWGQGTQVTVSS | low polyreactivity
QVQLVESGGGLVQAGGSLRLSCAASGSTFTYYAMGWYRQAPGKERELFAAITFRGDSTYYADSVKGRFTISRDNAKNTVYLQMNILKPEDTAVYYCNADSISSTYYDEDYWGQGTQVTVSS | low polyreactivity
QVQLVESGGGLVQAGGTLRLSCAASGSIVVGNTMGWYRQAPGKERELVAAITWSGGRTYYADSVKGRFTISRDIAKNTVYLQMNSLKPEDTAVYYCAAPTYLRRGMDTYNLGYGYWGQGTQVTVSS | high polyreactivity
QVQLVESGGGLVQAGGSLRLSCAASGRILRHNAKGWYRQAPGKERELVAAITNGGSTYYADSVKGRFTISRDNAKNTVYLQMNCLKPEDTAVYYCAARTRLAQYSRGRYRYDYWGQGTQVTLSS | high polyreactivity
QVQLVESGGGLVQAGGSLRLSSAASGRIFSDYAMGWYRQAPGKERELVATITSGDSTNYADSVKGRFTISRDNAKNTVYLQMNSLKPEDTAVYYCNADRFADYDYWGQGTQVTVSS | low polyreactivity
QVQLVESGGGLVQAGGSLRLSCAASGSTFKPNAMGWYRQAPGKERELVAAITSGSTYYADSVKGRFTISRDNAKNSVYLQMNSLIPEDSAVYYCATSFRGKSPYRNSGSYYFWGQGTQVTVSS | high polyreactivity
QVQLVESGGGLVQAGGSLRLSCAASGRTFVGYAIGWSRPATGKERELVAAISRTGGSTYYADSVKGRFTISRDNAKNTVYLQMNSLKPEDTAVYYCNAVTLSSTYGGHDYWGQGTQVTVSS | high polyreactivity
QVQLVESGGGLVHAGGSLRLSCAASGFTFTAYARGWYRQATGKERELVAAINWSGSRTYNADSVKGRFTISRDNAKNTVYLQMNSLKPEDSAVYYCNTATSKSSYRHYDYWGQGTLVTVSS | high polyreactivity
QVQLVESGGGLVQAGGSLRLSCAASGRIFPAYVRVWYRQAPGKERELVAAISDRGGSTYYADSVKGRFTISRDTAKHTVSLQMHRLKPEDTAVYYCAKGGEVSQGYTDDYDYWGQGTQVSVSS | low polyreactivity
QVQLVDTGGGLGQAGGSLRLSCAASGSTFFPYAMGWYRQAPGKEREFVAGISSDGGTSYADSVKGRFTISRDNAKNTVYLQMNSLKPEDTAVYYCAALQADRDRYPEFDLMDYWGQGTQVSVSS | low polyreactivity
QVQLVESGGGLVQAGGSLRLSCAASGITFRYYAMGWYRQAPGKERELVASITSGGVNTYYADSVKGRFTISRDNAKNTVYLQMNSLKPEDTAVYYCATRFSYSALGGYDYWGQGTQVTVSS | low polyreactivity
QVQLVESGGGFVQAGGSLRLSCAASGYTFDHNAMGWYRQAPGKERELVAAISLTGSSTYYADSVKGRFTISRDNANNNVYLQMNSLKPEDTAVYYCAAVYHQAFKYKFNYWGQGTQVTVSS | low polyreactivity
QVQLVESGGGLVQAGGSLRLSCADSGRTFEPYTMGWYRQAPGKERELVAAISWRGGSTYADSVKGRFTISRDNAKNTVYLQMNSLKPEDTAVYYCAAEPYWHLDSQYFGREYDYWGQGTQVTVSS | low polyreactivity
QVQLVESGGGLVQAGGSLRLSCAASGSTFSFYDMGWYRQAPGKERELVAAITGSGGTTYYADSVKGRFTISRDNAKNTVYLQMNSLKPEDTAVYYCAADSLESYPDYEYDYWGQGTQVTVSS | low polyreactivity
QVQLVESGGGLVQAGGSLRLSCAASGSTFYVNAMGWYSQAPGKEREFVAAITWNSGSTYYADSVKGRFTISRDNAKNTVYLQMNSLKPEDTAVYYCAAVLSVRVYGYDYWGQGTQVTVSS | low polyreactivity
QFQLVESGGGLVQAGGSLRLSCAASGSTFIYNTMGWYRQAPGKERELVATIRRSGGITYYADSVKGRFTISRDNAKNTVYLQMNSLKPEDTAVYYCNAKPNRYSAKIVQYDSWGQGTQVTVSS | low polyreactivity
HVQLVESGGGLVQAGGSLRLSCAASGSTFGYYTMGWYREAPGKERELVAAISWSGGSTYYADSVKGRFTISRDNAKNTVYLQMNRLKPEDTAVYYCAALGYTYKYYSYYWGQGTQVTVSS | high polyreactivity
